Tested on: peptide library, one residue held at a place counted from the S/T acceptor
Assay: relative phosphorylation of the sub-library (ratio to the mean residue at this position); higher = residue favoured
How it was run: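 Relative sub-library phosphorylation, a ratio to the mean residue at that position, was obtained by phosphorimaging and densitometry of spots on streptavidin membranes. Before capture, purified recombinant kinases were incubated for 90 min under kinase-specific conditions with 50 μM biotinylated degenerate peptide sub-libraries and 50 μM ATP spiked with γ-32P-ATP. Each sub-library fixed one residue at one position around a central Ser/Thr.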

Sequence of MAPKAPK5, construct: Full length, human (Q8IW41 whole entry, looked up): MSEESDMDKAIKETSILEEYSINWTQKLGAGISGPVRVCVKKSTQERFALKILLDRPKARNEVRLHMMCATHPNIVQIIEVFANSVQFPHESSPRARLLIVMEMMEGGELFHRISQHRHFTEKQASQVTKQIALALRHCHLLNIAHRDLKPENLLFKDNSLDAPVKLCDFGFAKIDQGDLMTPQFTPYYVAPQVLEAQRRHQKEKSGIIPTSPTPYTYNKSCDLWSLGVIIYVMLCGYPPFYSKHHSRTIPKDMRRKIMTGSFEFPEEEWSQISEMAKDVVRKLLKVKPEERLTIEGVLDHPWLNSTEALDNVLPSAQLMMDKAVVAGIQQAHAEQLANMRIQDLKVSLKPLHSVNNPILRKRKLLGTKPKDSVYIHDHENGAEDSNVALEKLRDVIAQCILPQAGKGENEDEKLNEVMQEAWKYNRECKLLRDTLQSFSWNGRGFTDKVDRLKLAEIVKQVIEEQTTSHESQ
Sequence of MAPK14, construct: Full length, human (Q16539 whole entry, looked up): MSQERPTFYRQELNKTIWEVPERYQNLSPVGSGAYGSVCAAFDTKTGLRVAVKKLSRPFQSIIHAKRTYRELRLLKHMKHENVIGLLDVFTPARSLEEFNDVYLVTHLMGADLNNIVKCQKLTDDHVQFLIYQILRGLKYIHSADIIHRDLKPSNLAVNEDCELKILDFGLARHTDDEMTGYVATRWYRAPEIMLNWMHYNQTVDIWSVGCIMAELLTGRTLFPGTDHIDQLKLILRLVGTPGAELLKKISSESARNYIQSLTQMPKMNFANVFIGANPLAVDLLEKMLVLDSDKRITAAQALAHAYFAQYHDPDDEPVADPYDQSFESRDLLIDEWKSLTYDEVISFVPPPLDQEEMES
Sequence of MAPKAPK3, construct: Full length, human (Q16644 whole entry, looked up): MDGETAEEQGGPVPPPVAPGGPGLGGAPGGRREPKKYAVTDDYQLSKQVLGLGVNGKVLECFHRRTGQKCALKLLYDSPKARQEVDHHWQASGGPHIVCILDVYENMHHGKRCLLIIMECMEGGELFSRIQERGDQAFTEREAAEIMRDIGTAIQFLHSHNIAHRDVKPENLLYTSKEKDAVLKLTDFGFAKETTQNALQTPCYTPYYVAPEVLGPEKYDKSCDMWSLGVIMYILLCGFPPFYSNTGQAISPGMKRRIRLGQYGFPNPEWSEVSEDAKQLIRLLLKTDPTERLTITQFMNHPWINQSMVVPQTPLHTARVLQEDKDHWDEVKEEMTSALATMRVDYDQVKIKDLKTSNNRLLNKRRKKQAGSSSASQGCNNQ

MAPK14, construct: Full length, human (from UniProt Q16539)
relative phosphorylation
Conditions | at +1 | at +2 | at +3 | at +4 | at -1 | at -2 | at -3 | at -4 | at -5
A fixed | 1.53 | 1.11 | 1.23 | 0.76 | 1.11 | 1.26 | 1.35 | 1.05 | 0.942
D fixed | 0.147 | 0.674 | 0.665 | 0.783 | 0.616 | 0.425 | 0.833 | 0.947 | 0.761
E fixed | 0.135 | 0.652 | 0.727 | 0.67 | 0.84 | 0.319 | 1.22 | 0.981 | 0.935
F fixed | 0.403 | 0.864 | 1 | 1.47 | 0.795 | 0.59 | 0.769 | 1.01 | 0.997
G fixed | 1.24 | 1.3 | 1.17 | 1.05 | 1.35 | 0.91 | 1.67 | 1.16 | 1.18
H fixed | 0.346 | 1.11 | 0.846 | 0.89 | 1.06 | 0.499 | 1.01 | 0.859 | 1
I fixed | 0.337 | 1.29 | 1.53 | 0.996 | 0.649 | 0.93 | 0.957 | 1.16 | 1.12
K fixed | 0.34 | 1.33 | 0.654 | 1.06 | 0.922 | 0.594 | 0.908 | 1.09 | 1.24
L fixed | 0.412 | 1.12 | 0.877 | 1.07 | 1.39 | 1.43 | 0.87 | 1.21 | 1.16
M fixed | 0.408 | 0.967 | 0.926 | 1.11 | 1.55 | 1.14 | 1.07 | 1.15 | 1.05
N fixed | 0.344 | 0.797 | 0.611 | 0.716 | 0.809 | 0.548 | 0.887 | 0.837 | 0.785
P fixed | 9.61 | 0.697 | 1.64 | 0.88 | 1.14 | 4.82 | 1.27 | 1.03 | 1.27
Q fixed | 0.277 | 0.903 | 0.673 | 0.895 | 1.1 | 0.686 | 0.892 | 0.898 | 0.871
R fixed | 0.424 | 1.44 | 0.926 | 1.21 | 1.42 | 0.752 | 1.11 | 0.959 | 1.03
V fixed | 0.366 | 1.09 | 1.43 | 0.801 | 0.755 | 1.09 | 0.727 | 0.767 | 0.757
W fixed | 0.37 | 0.751 | 1.1 | 1.42 | 0.637 | 0.507 | 0.64 | 0.945 | 0.746
Y fixed | 0.31 | 0.914 | 0.998 | 1.21 | 0.866 | 0.492 | 0.807 | 0.934 | 1.16
pThr fixed | 0.432 | 1.1 | 0.892 | 0.516 | 0.341 | 0.619 | 1.02 | 0.89 | 0.939
pTyr fixed | 0.397 | 0.625 | 1.16 | 0.674 | 0.632 | 0.435 | 0.834 | 0.943 | 1.33

MAPKAPK3, construct: Full length, human (from UniProt Q16644)
relative phosphorylation
Conditions | at +1 | at +2 | at +3 | at +4 | at -1 | at -2 | at -3 | at -4 | at -5
A fixed | 0.674 | 1.05 | 1.17 | 1.02 | 0.861 | 1.42 | 0.885 | 1.11 | 0.659
D fixed | 0.406 | 1.06 | 1.47 | 1.21 | 0.649 | 0.266 | 0.193 | 0.495 | 0.203
E fixed | 0.637 | 0.868 | 1.52 | 1.02 | 0.573 | 0.386 | 0.222 | 0.764 | 0.187
F fixed | 1.04 | 0.749 | 0.722 | 0.727 | 1.05 | 0.806 | 0.438 | 0.896 | 1.97
G fixed | 0.54 | 0.872 | 1.5 | 1.26 | 0.579 | 0.968 | 0.614 | 0.88 | 0.453
H fixed | 1.26 | 1.31 | 1.05 | 1.01 | 1.23 | 0.903 | 1.34 | 1.12 | 0.689
I fixed | 1.21 | 0.813 | 0.518 | 0.711 | 0.838 | 0.462 | 0.211 | 0.795 | 1.31
K fixed | 1.07 | 0.94 | 0.807 | 1.14 | 1.3 | 0.927 | 2.05 | 1.79 | 0.646
L fixed | 1.05 | 0.794 | 0.645 | 0.823 | 1.24 | 1.04 | 0.314 | 1.12 | 1.71
M fixed | 1.31 | 0.826 | 0.675 | 0.84 | 1.21 | 1.5 | 0.487 | 1.26 | 1.2
N fixed | 1.08 | 1.26 | 1.13 | 1.16 | 1.13 | 0.857 | 0.682 | 0.76 | 0.361
P fixed | 0.229 | 1.27 | 1.82 | 1.54 | 1.22 | 0.638 | 0.883 | 0.627 | 1.15
Q fixed | 1.21 | 1.13 | 1.01 | 1.15 | 0.973 | 2.92 | 0.919 | 1.13 | 0.688
R fixed | 1.7 | 1.26 | 0.851 | 1.04 | 1.23 | 1.6 | 6.2 | 1.64 | 1.41
V fixed | 1.45 | 0.974 | 0.707 | 0.758 | 0.99 | 0.724 | 0.252 | 0.872 | 1.13
W fixed | 0.878 | 0.795 | 0.66 | 0.919 | 0.716 | 0.786 | 0.796 | 0.804 | 2.1
Y fixed | 1.24 | 1.02 | 0.745 | 0.67 | 1.21 | 0.788 | 0.521 | 0.931 | 1.15
pThr fixed | 0.99 | 0.759 | 0.687 | 1.1 | 0.449 | 0.345 | 0.244 | 0.464 | 0.333
pTyr fixed | 1.79 | 0.934 | 1.05 | 0.812 | 0.732 | 0.334 | 0.233 | 0.572 | 0.563

MAPKAPK5, construct: Full length, human (from UniProt Q8IW41)
relative phosphorylation
Conditions | at +1 | at +2 | at +3 | at +4 | at -1 | at -2 | at -3 | at -4 | at -5
A fixed | 0.697 | 1.12 | 1.09 | 0.728 | 0.899 | 1.63 | 0.654 | 0.868 | 0.78
D fixed | 0.317 | 1.3 | 0.82 | 1.17 | 0.706 | 0.282 | 0.157 | 0.486 | 0.433
E fixed | 0.474 | 1.29 | 0.757 | 1.01 | 0.557 | 0.442 | 0.171 | 0.864 | 0.313
F fixed | 1.17 | 0.746 | 1.48 | 0.96 | 0.965 | 0.679 | 0.639 | 1.11 | 1.79
G fixed | 0.396 | 0.947 | 0.903 | 1.05 | 0.427 | 1.07 | 0.5 | 0.658 | 0.527
H fixed | 1.13 | 1.11 | 1.01 | 1.17 | 1.22 | 0.742 | 1.14 | 1.03 | 0.763
I fixed | 1.38 | 0.921 | 0.694 | 0.883 | 1.18 | 0.522 | 0.228 | 0.834 | 1.24
K fixed | 0.641 | 0.729 | 0.646 | 0.917 | 0.966 | 0.769 | 0.754 | 1.23 | 0.777
L fixed | 1.02 | 0.704 | 0.819 | 0.794 | 1.33 | 1.16 | 0.521 | 1.19 | 1.59
M fixed | 1.15 | 1 | 1.05 | 0.912 | 1.8 | 1.77 | 0.816 | 1.27 | 1.27
N fixed | 0.552 | 1.08 | 0.687 | 0.986 | 1.09 | 0.903 | 0.341 | 0.642 | 0.633
P fixed | 0.338 | 0.956 | 1.46 | 1.25 | 0.529 | 0.292 | 0.322 | 0.512 | 0.748
Q fixed | 1.13 | 1.23 | 0.672 | 0.898 | 0.935 | 2.85 | 0.696 | 0.93 | 0.62
R fixed | 0.931 | 0.972 | 0.602 | 0.968 | 1.38 | 1.55 | 7.97 | 1.32 | 1.28
V fixed | 1.84 | 1.24 | 1.1 | 0.768 | 1.04 | 0.608 | 0.267 | 0.813 | 0.894
W fixed | 2.06 | 0.716 | 1.48 | 1.41 | 0.822 | 0.861 | 0.935 | 1.82 | 1.89
Y fixed | 1.78 | 0.942 | 1.73 | 1.14 | 1.17 | 0.862 | 0.885 | 1.43 | 1.47
pThr fixed | 0.688 | 0.697 | 0.784 | 1.49 | 0.462 | 0.387 | 0.267 | 0.599 | 0.61
pTyr fixed | 2.04 | 1.96 | 1.2 | 1.41 | 1.28 | 1.36 | 0.297 | 1.26 | 0.914

— the supplement of paper PMC9876800
